Results on 1 molecule are retold here after PMC7062783, “Endophilin-A coordinates priming and fusion of neurosecretory vesicles via intersectin” (Nature Communications, 2020).

The assay concerns the target T1, recombinant rat endophilin A1 FL (GST fusion) (rat, UniProt O35179 1-352).
T1 construct: endophilin A1 (endophilin 1), rat, full length, cloned into pGEX4T-1; also called endophilin 1
As to the kind of experiment: pull-down; 50 or 100 ug GST-fusion protein coupled to GST-Bind resin, incubated with 10 ug His6-tagged recombinant protein in 1 ml for 1 h at 4 °C; extensive washes; Coomassie staining and/or SDS-PAGE and immunoblotting. The following applies: both partners purified. For orientation: Immunoblotting shows a protein as a band on a membrane.

T1 sequence (O35179 whole entry, the tested form may be a part): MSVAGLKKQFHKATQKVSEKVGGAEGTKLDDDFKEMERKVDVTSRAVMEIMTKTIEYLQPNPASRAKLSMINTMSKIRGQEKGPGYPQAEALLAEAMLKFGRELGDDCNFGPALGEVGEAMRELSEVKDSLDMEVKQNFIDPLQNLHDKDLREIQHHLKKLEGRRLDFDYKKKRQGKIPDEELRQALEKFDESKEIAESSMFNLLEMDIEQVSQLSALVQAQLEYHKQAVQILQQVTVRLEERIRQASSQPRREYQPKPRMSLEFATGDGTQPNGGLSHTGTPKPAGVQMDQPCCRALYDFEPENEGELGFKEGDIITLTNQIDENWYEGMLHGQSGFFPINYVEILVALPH

B1: recombinant human intersectin-1 SH3B (aa 914-970), His6-tagged (domain or fragment, UniProt Q15811 914-970, looked up)
chain: EGLQAQALYPWRAKKDNHLNFNKNDVITVLEQQDMWWFGEVQGQKGWFPKSYVKLIS
notes: intersectin-1, human, SH3B domain, aa 914-970, cloned in pET28a; also called ITSN-1; ITSN1
As to B1, the binding result was “binds”.
